Data on two molecules can be found in article PMC5405935, “Role of Kif15 and its novel mitotic partner KBP in K-fiber dynamics and chromosome alignment” (PLoS ONE, 2017).

To fix the notation:
B1: Kif15-M-His (amino acids 1-714, motor domain and part of the stalk) (domain or fragment, human, UniProt Q9NS87 1-714, looked up)
chain: MAPGCKTELRSVTNGQSNQPSNEGDAIKVFVRIRPPAERSGSADGEQNLCLSVLSSTSLRLHSNPEPKTFTFDHVADVDTTQESVFATVAKSIVESCMSGYNGTIFAYGQTGSGKTFTMMGPSESDNFSHNLRGVIPRSFEYLFSLIDREKEKAGAGKSFLCKCSFIEIYNEQIYDLLDSASAGLYLREHIKKGVFVVGAVEQVVTSAAEAYQVLSGGWRNRRVASTSMNRESSRSHAVFTITIESMEKSNEIVNIRTSLLNLVDLAGSERQKDTHAEGMRLKEAGNINRSLSCLGQVITALVDVGNGKQRHVCYRDSKLTFLLRDSLGGNAKTAIIANVHPGSRCFGETLSTLNFAQRAKLIKNKAVVNEDTQGNVSQLQAEVKRLKEQLAELASGQTPPESFLTRDKKKTNYMEYFQEAMLFFKKSEQEKKSLIEKVTQLEDLTLKKEKFIQSNKMIVKFREDQIIRLEKLHKESRGGFLPEEQDRLLSELRNEIQTLREQIEHHPRVAKYAMENHSLREENRRLRLLEPVKRAQEMDAQTIAKLEKAFSEISGMEKSDKNQQGFSPKAQKEPCLFANTEKLKAQLLQIQTELNNSKQEYEEFKELTRKRQLELESELQSLQKANLNLENLLEATKACKRQEVSQLNKIHAETLKIITTPTKAYQLHSRPVPKLSPEMGSFGSLYTQNSSILDNDILNEPVPPEMNEQAFEA
notes: Kif15, human, first 714 amino acids (motor domain and part of the stalk sufficient for dimerization), cloned into pET-21b; also called recombinant Kif15 motor domain; source: E. coli BL21 (DE3), purified (Ni-NTA)
B2: KBP-His (full-length His-tagged KBP) (natural protein, human, UniProt Q96EK5 1-621, looked up)
chain: MANVPWAEVCEKFQAALALSRVELHKNPEKEPYKSKYSARALLEEVKALLGPAPEDEDERPEAEDGPGAGDHALGLPAEVVEPEGPVAQRAVRLAVIEFHLGVNHIDTEELSAGEEHLVKCLRLLRRYRLSHDCISLCIQAQNNLGILWSEREEIETAQAYLESSEALYNQYMKEVGSPPLDPTERFLPEEEKLTEQERSKRFEKVYTHNLYYLAQVYQHLEMFEKAAHYCHSTLKRQLEHNAYHPIEWAINAATLSQFYINKLCFMEARHCLSAANVIFGQTGKISATEDTPEAEGEVPELYHQRKGEIARCWIKYCLTLMQNAQLSMQDNIGELDLDKQSELRALRKKELDEEESIRKKAVQFGTGELCDAISAVEEKVSYLRPLDFEEARELFLLGQHYVFEAKEFFQIDGYVTDHIEVVQDHSALFKVLAFFETDMERRCKMHKRRIAMLEPLTVDLNPQYYLLVNRQIQFEIAHAYYDMMDLKVAIADRLRDPDSHIVKKINNLNKSALKYYQLFLDSLRDPNKVFPEHIGEDVLRPAMLAKFRVARLYGKIITADPKKELENLATSLEHYKFIVDYCEKHPEAAQEIEVELELSKEMVSLLPTKMERFRTKMALT
notes: also called recombinant His-tagged KBP; source: E. coli BL21 (DE3), purified (Ni-NTA)

Series [1] concerns the molecule itself. The series can be described thus: SEC + other: sucrose gradient centrifugation; 80 μg of each protein alone or both in motor buffer (100mM PIPES, 2mM MgAc2, 1mM EGTA, 1mM DTT), pre-incubated 30 min on ice; Superose 6 column; 6-28% sucrose gradients, 16 h at 4°C; with or without ATP; native molecular weights calculated from Stokes radius and sedimentation coefficient.

The target in series [2] is B1. The description is as above. Particulars: both partners purified.

As a reminder, the stoichiometry N is the number of molecules, sites or subunits per partner or assembly. As to B1, the “stoichiometry N” value in series [1] was 2.
Regarding B2, the “stoichiometry N” value in series [2] is 2 KBP per Kif15-M dimer.
